Data as given in patent US20140105889A1 (published 2014).
Where a chain is given by its changes, count along the chain named. Numbers in names are those of the source. Each block holds one binder with its values, some of them ahead of it.

What was measured:
mouse FcγRIV [1] = biological target: T1, mouse FcγRIV (mouse); assay: SPR (Biacore), antibody captured on Protein L, mouse FcγR as analyte, pH 7.4, 25 C
T1 construct: Bought soluble receptor; also called mFcgRIV; mFcgR IV

mouse FcγRIV [2] = biological target: T1, mouse FcγRIV; assay: SPR (Biacore), antibody captured on Protein L, mouse FcγR as analyte, pH 7.4, 25 C (method of Example 4, RU)
human FcγRIIIa(F) [3] = biological target: T2, human FcγRIIIa(F) (human, UniProt P08637 17-208, limits assumed); assay: SPR (Biacore), antibody captured on Protein L, human FcγR as analyte, pH 7.4, 25 C
T2 construct: also called hFcgRIIIa(F); hFcgRIIIa

human FcγRIIIa(F) [4] = biological target: T2, human FcγRIIIa(F); assay: as above; remark: listed apart in the source
human FcRn [5] = biological target: T3, human FcRn (human); assay: SPR (Biacore), antibody captured by Protein L, human FcRn as analyte, pH 7.0
T3 construct: Soluble human FcRn complexed with β2-microglobulin; also called hFcRn; soluble human FcRn complexed with β2-microglobulin

human FcγRIIb = biological target: T4, human FcγRIIb (human, UniProt P31994 43-217, limits assumed); assay: SPR (Biacore), antibody captured on Protein L, human FcgR as analyte, pH 7.4, 25 C; amount normalised to captured antibody
T4 construct: also called hFcgRIIb; FcγIIB
T4 sequence: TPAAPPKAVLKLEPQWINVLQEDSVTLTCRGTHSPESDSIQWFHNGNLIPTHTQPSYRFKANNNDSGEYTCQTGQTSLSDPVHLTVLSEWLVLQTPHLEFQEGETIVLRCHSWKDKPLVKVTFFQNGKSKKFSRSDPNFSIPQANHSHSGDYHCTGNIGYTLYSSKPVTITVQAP

human FcγRIIIa(F) [6] = biological target: T5, human FcγRIIIa(F) (human, UniProt P08637 17-208, limits assumed); assay: as above
T5 construct: also called hFcgRIIIa(F); allotype F158

human FcRn [7] = biological target: T3, human FcRn; assay: SPR (Biacore), antibody captured by Protein L, human FcRn as analyte, pH 7.0; remark: listed apart in the source
human FcRn [8] = biological target: T6, human FcRn (human); assay: SPR (Biacore), pH 7.0, 25 C; antibody captured on Protein L, human FcRn injected
T6 construct: Soluble human FcRn complexed with beta2-microglobulin; also called hFcRn; soluble human FcRn complexed with β2-microglobulin

[9] = biological target: T7, human FcRn (soluble human FcRn complexed with beta2-microglobulin) (human, UniProt P61769 21-119); assay: SPR (Biacore), pH 7.0, 25 C, antibody captured by Protein L, human FcRn as analyte
T7 construct: also called hFcRn

human FcRn [10] = biological target: T6, human FcRn; assay: SPR (Biacore), pH 7.0, 25 C; antibody captured on Protein L, human FcRn injected; remark: listed apart in the source
[11] = biological target: T8, human FcRn (soluble human FcRn complexed with β2-microglobulin) (human, UniProt P61769 21-119); assay: Biacore SPR, pH 7.0, 25 C; antibody captured by Protein L, human FcRn as analyte
T8 construct: also called hFcRn

human FcγRIIIa(F) [12] = biological target: T9, human FcγRIIIa(F) (human, UniProt P08637 17-208, limits assumed); assay: SPR (Biacore T100), antibody captured by Protein A, FcγR as analyte, HBS-EP+, 25°C, 1:1 Langmuir global fit
T9 construct: also called FcgRIIIaF; hFcgRIIIa(F)

human FcγRIIIa(F) [13] = biological target: T9, human FcγRIIIa(F); assay: SPR (Biacore T100), ratio of the KD values of Table 24, reference IgG1 (IL6R-G1d/IL6R-L)
human FcγRIIIa(F) [14] = biological target: T9, human FcγRIIIa(F); assay: SPR (Biacore T100), antibody captured by Protein A, FcγR as analyte, 25°C; weak binding, KD calculated by Equation 5 (1:1 binding model)

T1 sequence (A0A0B4J1G0 21-203): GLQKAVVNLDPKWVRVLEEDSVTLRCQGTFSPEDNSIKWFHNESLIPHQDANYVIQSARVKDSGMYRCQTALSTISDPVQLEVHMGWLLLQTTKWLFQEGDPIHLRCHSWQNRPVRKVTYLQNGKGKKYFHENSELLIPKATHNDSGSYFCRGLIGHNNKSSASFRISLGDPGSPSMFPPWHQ

B2: VH3/L(WT)-IgG1-F698 (antibody, name in EU numbering)
heavy: QVQLQESGPGLVKPSETLSLTCAVSGHSISHDHAWSWVRQPPGEGLEWIGFISYSGITNYNPSLQGRVTISRDNSKNTLYLQMNSLRAEDTAVYYCARSLARTTAMDYWGEGTLVTVSSASTKGPSVFPLAPSSKSTSGGTAALGCLVKDYFPEPVTVSWNSGALTSGVHTFPAVLQSSGLYSLSSVVTVPSSSLGTQTYICNVNHKPSNTKVDKKVEPKSCDKTHTCPPCPAPELLGGPSVFLFPPKPKDTLYISRTPEVTCVVVDVSHEDPEVKFNWYVDGVEVHEAKTKPREEQYNSTYRVVSVLQVLHADWLNGKEYKCKVSNKALPAPIEKTISKAKGQPREPQVYTLPPSRDELTKNQVSLTCLVKGFYPSDIAVEWESNGQPENNYKTTPPVLDSDGSFFLYSKLTVDKSRWQQGNVFSCSVMHEALHYHYTQKSLSLSP
light: not shown
notes: The positions are EU numbering, not positions on the entry; copies: 2 + 2
BINDING AMOUNT (RU) (human FcγRIIIa(F) [3]): 55.9 RU
BINDING AMOUNT (RU) (human FcγRIIIa(F) [4]): 55.9 RU

B3: VH3/L(WT)-IgG1-F763 (antibody, name in EU numbering)
heavy: B2 heavy with L237R, S241K
light: not shown
notes: as for B2
BINDING AMOUNT (RU) (human FcγRIIIa(F) [4]): -2.9 RU

B5: antibody containing VH3-IgG1-F1324 for the heavy chain and L(WT)-CK for the light chain (antibody)
heavy: B2 heavy with L236A, L237A, E288N, Q309T, A313Q, Y438V
light: not shown
BINDING AMOUNT (RU) (human FcγRIIb): 3.85 RU
BINDING AMOUNT (RU) (human FcγRIIIa(F) [6]): 5.83 RU

B7: IgG1-F791 (antibody)
heavy: B2 heavy with E288N, Q309T, A313Q, N317F
light: not shown
notes: Substitutions by EU numbering; copies: 2 + 2
Kd (human FcRn [8]): 440 nM

B9: IgG1-F1031 (antibody, name in EU numbering)
heavy: B2 heavy with G238A, S241D, T252V, E288N, I334E, Y438V
light: not shown
Kd [9]: 53 nM

B10: IgG1-F770 (antibody)
heavy: B2 heavy with T258A, E288N, Q309T, A313Q
light: not shown
notes: as for B7
Kd (human FcRn [10]): 300 nM

B11: IgG1-F1369 (antibody, name in EU numbering)
heavy: B2 heavy with L237R, S241K, S256T, T258E, E288N, Q309T, A313Q, Y438F, Q440R, S442E
light: not shown
notes: light chain L(WT)-CK; copies: 2 + 2
Kd (human FcRn [7]): 76 nM

B12: IgG1-F755 (antibody)
heavy: B2 heavy with P240D, T252S, E288N, Q309T, A313Q
light: not shown
notes: as for B7
Kd (human FcRn [10]): 350 nM

B13: antibody containing VH3-IgG1-F1326 for the heavy chain and L(WT)-CK for the light chain (antibody)
heavy: B2 heavy with L236A, L237A, T252V, E288N, V310P, Y438V
light: not shown
BINDING AMOUNT (RU) (human FcγRIIb): 5.46 RU
BINDING AMOUNT (RU) (human FcγRIIIa(F) [6]): 9.51 RU

B15: IgG1-F185 (antibody, name in EU numbering)
heavy: B2 heavy with Y254W, E288N, Q309T, A313Q, I334V
light: not shown
notes: VH3-IgG1 Fc variant; EU numbering
Kd [11]: 260 nM

B18: VH3/L(WT)-IgG1-F699 (antibody, name in EU numbering)
heavy: B2 heavy with S241K
light: not shown
notes: as for B2
BINDING AMOUNT (RU) (human FcγRIIIa(F) [3]): -2 RU

B19: IgG1 (IL6R-G1d / IL6R-L) (antibody)
heavy: not shown
light: DIQMTQSPSSLSASVGDRVTITCRASQDISSYLNWYQQKPGKAPKLLIYYTSRLHSGVPSRFSGSGSGTDFTFTISSLQPEDIATYYCQQGNTLPYTFGQGTKVEIK
notes: Anti-human IL-6 receptor antibody; G1d constant region (IgG1 without C-terminal Gly and Lys); L chain of tocilizumab
Kd (human FcγRIIIa(F) [12]): 3100 nM

B20: IgG1-v2 (IL6R-G1d_v2 / IL6R-L) (antibody)
heavy: not shown
light: B19 light
notes: IL6R-G1d with L328E (EU numbering)
relative KD (KD of IgG1 / KD of the variant) (human FcγRIIIa(F) [13]): 0.14 fold
Kd (human FcγRIIIa(F) [14]): 23000 nM

B22: IgG1-v1 (IL6R-G1d_v1 / IL6R-L) (antibody)
heavy: not shown
light: B19 light
notes: IL6R-G1d with P238D (EU numbering)
relative KD (KD of IgG1 / KD of the variant) (human FcγRIIIa(F) [13]): 0.061 fold
Kd (human FcγRIIIa(F) [14]): 51000 nM

Continued, values first:

BINDING AMOUNT (RU) (mouse FcγRIV [1]): 242 RU
BINDING AMOUNT (mouse FcγRIV [2]): 279
B1: antibody with VH3-IgG1-F947 heavy chain and L(WT)-CK light chain (antibody)
heavy: B2 heavy with T252V, E288N, V310P, Y438V
light: not shown
notes: copies: 2 + 2

Kd (human FcRn [5]): 55.8 nM
B4: IgG1-F1340 (antibody, name in EU numbering)
heavy: B2 heavy with L237R, S241K, S256T, T258E, E288N, Q309T, A313Q, Y438V, Q440K, S442E
light: not shown
notes: as for B11

Kd (human FcRn [7]): 74.9 nM
B6: IgG1-F1364 (antibody, name in EU numbering)
heavy: B2 heavy with L237R, S241K, T258E, E288N, Q309T, A313Q, Y438F, Q440K, S442E
light: not shown
notes: as for B11

Kd [9]: 130 nM
B8: IgG1-F1039 (antibody, name in EU numbering)
heavy: B2 heavy with L237K, P240D, S241K, E288N, Q309T, A313Q, Y438V
light: not shown

Kd (human FcRn [8]): 330 nM
B14: IgG1-F802 (antibody)
heavy: B2 heavy with E288N, Q309T, A313Q, N317V
light: not shown
notes: as for B7

BINDING AMOUNT (mouse FcγRIV [2]): 85.6
B16: antibody with VH3-IgG1-F1326 heavy chain and L(WT)-CK light chain (antibody)
heavy: B2 heavy with L236A, L237A, T252V, E288N, V310P, Y438V
light: not shown
notes: copies: 2 + 2

Kd [11]: 33 nM
B17: IgG1-F197 (antibody, name in EU numbering)
heavy: B2 heavy with Y254M, P259T, E288N, A313Q, M430L
light: not shown
notes: as for B15

relative KD (KD of IgG1 / KD of the variant) (human FcγRIIIa(F) [13]): 0.35 fold
Kd (human FcγRIIIa(F) [12]): 8800 nM
B21: IgG1-v3 (IL6R-G1d_v3 / IL6R-L) (antibody)
heavy: not shown
light: B19 light
notes: IL6R-G1d with S267E/L328F (EU numbering)
